Assay [1] addresses T1, human PD-1 extracellular domain protein expressed in Example 1 (tag not stated) (human, UniProt Q15116 25-170).
T1 construct: extracellular domain; also called PD-1 protein; not shown: human IgG1 Fc or his tag
In words: ELISA; pH 5.5, 40°C 10 days, against 0 day.

Assay [2] concerns the target T2, human TIM-3 extracellular domain-human IgG1 Fc fusion protein (human, UniProt Q8TDQ0 22-199).
T2 construct: Made in house or bought (ACROBiosystems TM3-H5258); also called TIM-3-hFc; not shown: human IgG1 Fc
The assay is described as follows: ELISA; pH 5.5, 40°C 10 days, against 0 day. In general terms: In an ELISA, binding on a coated surface is turned into a signal by an enzyme label.

The target in assay [3] is T1, human PD-1 extracellular domain protein …. In words: ELISA; pH 5.5, 40°C 5 days.
Assay [4] has as its target T2, human TIM-3 extracellular domain-human …. The assay is described as follows: ELISA; pH 5.5, 40°C 5 days.
In assay [5] the target is T1, human PD-1 extracellular domain protein …. In words: ELISA; pH 5.5, 0 day, against 0 day.
For assay [6], the target named is T2, human TIM-3 extracellular domain-human …. In words: ELISA; pH 5.5, 0 day, against 0 day.
Assay [7] addresses T1, human PD-1 extracellular domain protein …. The assay is described as follows: ELISA; pH 6.0, 0 day, against 0 day.
Assay [8] addresses T2, human TIM-3 extracellular domain-human …. The assay is described as follows: ELISA; pH 6.0, 0 day, against 0 day.
The target of assay [9] is T1, human PD-1 extracellular domain protein …. In words: ELISA; preparation buffer, 37°C 7 days, against 0 day.
Assay [10] concerns the target T2, human TIM-3 extracellular domain-human …. The description is as above.
The target of assay [11] is T1, human PD-1 extracellular domain protein …. In words: ELISA, PD-1 coated. As for the experimental part: PD-1 expressed in Example 1 was diluted to a concentration of 1 μg/ml with PBS buffer, pH 7.4, and added to a 96-well microplate (Corning, CLS3590-100EA) at 50 μl per well, thereby incubating in an incubator at 37° C. for 2 hours. After discarding the liquid, a blocking solution of 5% skimmed milk (Shanghai Shenggong Biological Engineering Co., Ltd., A600669-0250) diluted with PBS was added at 200 μl per well, followed by incubating at 37° C. for 3 hours or 4° C. overnight (16-18 hours)) for blocking. Subsequently, the blocking solution was discarded, and the microplate was washed 5 times with PBST buffer (pH 7.4 PBS containing 0.05% tween-20). […] Subsequently, the microplate was washed 5 times with PBST, then 50 μl/well of 1:2500 diluted HRP-labeled secondary antibody (Jackson Immuno Research, 115-035-003) was added, thereby incubating at 37° C. for 1 hour. After washing the microplate 5 times with PBST, 50 μl/well TMB chromogenic substrate (KPL, 52-00-03) was added, then incubated at room temperature for 5-10 min. Finally, 50 μl/well of 1M H₂SO₄ was added to stop the reaction. […] Go microplate reader (ThermoFisher, 51119200) was used to read the absorption value at 450 nm and the EC50 based on the OD value was calculated.

Assay [12] shares this target. In words: ELISA; PBS, 0 day, against 0 day.
In assay [13] the target is T2, human TIM-3 extracellular domain-human …. The assay is described as follows: ELISA; PBS, 0 day, against 0 day.
For assay [14] the target is unchanged. The assay is described as follows: ELISA. The procedure:
Goat-anti-hFc (Jackson, 109-005-008) was diluted to a concentration of 1 μg/ml with PBS buffer (pH 7.4) and added to a 96-well microplate (Corning, CLS3590-100EA) at a volume of 50 μl/well, then incubated in an incubator at 37° C. for 2 hours (Or the antigen TIM-3 was directly used to coat the microplate with a concentration of 0.5 μg/ml, and then the antibody to be tested was directly added). After discarding the liquid, a blocking solution of 5% skimmed milk (skimmed milk powder purchased from Bright) diluted with PBS was added at 200 μl per well, and the microplate was incubated for 2.5 hours at 37° C. or overnight (16-18 hours) at 4° C. for blocking. The blocking solution was discarded, and the microplate was washed 5 times with PBST buffer (PBS with pH 7.4 containing 0.05% tween-20), then 50 μl/well of 0.5 μg/ml TIM-3-hFc (Example 1) was added and incubated for 2 hours in a 37° C. incubator. After incubation, the microplate was washed 6 times with PB ST. 50 μl/well of supernatant (containing testing antibody) or different concentrations of the antibody to be tested was added, and the microplate was incubated at 37° C. for 2 hours and washed 5 times with PBST. 50 μl/well of 1:2500 diluted HRP-labeled secondary antibody (Jackson Immuno Research, 115-035-003) was added to the microplate, incubating at 37° C. for 1 hour. After washing the microplate 5 times with PBST, 50 μl/well TMB chromogenic substrate (KPL, 52-00-03) was added to the microplate, followed by incubating at room temperature for 10-15 min.
The above-mentioned TIM-3 and PD-1 bispecific antibodies of the present invention were optimized and designed using the methods of Example 2 and Example 5, and their affinity for TIM-3 and PD-1 were tested respectively.

Assay [15] addresses T1, human PD-1 extracellular domain protein …. In words: ELISA; pH 5.5, 40°C 0 day (-80°C).
Assay [16] addresses T2, human TIM-3 extracellular domain-human …. The assay is described as follows: ELISA; pH 5.5, 40°C 0 day (-80°C).

In general, EC50 refers to the concentration that produces a half-maximal response. A low value points to greater potency.

B1: bispecific antibody LB141 (bispecific antibody, human IgG4 S228P, kappa)
light: EIVLTQSPATLSLSPGERATLSCRASKGVSTSGYSYLHWYQQKPGQAPRLLIYLASYLESGVPARFSGSGSGTDFTLTISSLEPEDFAVYYCQHSRDLPLTFGGGTKVEIKRTVAAPSVFIFPPSDEQLKSGTASVVCLLNNFYPREAKVQWKVDNALQSGNSQESVTEQDSKDSTYSLSSTLTLSKADYEKHKVYACEVTHQGLSSPVTKSFNRGEC
heavy: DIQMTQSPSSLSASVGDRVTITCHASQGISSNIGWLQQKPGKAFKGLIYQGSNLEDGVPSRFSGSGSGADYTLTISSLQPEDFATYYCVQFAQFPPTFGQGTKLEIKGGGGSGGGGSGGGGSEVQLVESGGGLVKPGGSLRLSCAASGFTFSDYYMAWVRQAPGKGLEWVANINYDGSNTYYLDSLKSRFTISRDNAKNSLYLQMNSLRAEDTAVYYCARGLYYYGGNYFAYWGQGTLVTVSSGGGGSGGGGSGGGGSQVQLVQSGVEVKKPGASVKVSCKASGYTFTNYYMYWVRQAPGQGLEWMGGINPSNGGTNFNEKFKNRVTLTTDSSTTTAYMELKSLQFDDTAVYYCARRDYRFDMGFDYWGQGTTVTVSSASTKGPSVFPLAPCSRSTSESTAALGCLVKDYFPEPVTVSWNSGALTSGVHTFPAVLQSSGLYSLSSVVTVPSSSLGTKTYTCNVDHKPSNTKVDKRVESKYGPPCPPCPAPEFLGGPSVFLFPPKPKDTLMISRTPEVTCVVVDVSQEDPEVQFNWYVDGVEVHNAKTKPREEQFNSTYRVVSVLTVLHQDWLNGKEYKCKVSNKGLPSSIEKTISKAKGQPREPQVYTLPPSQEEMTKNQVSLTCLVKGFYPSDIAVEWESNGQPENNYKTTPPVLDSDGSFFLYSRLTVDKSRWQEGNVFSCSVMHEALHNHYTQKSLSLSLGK
notes: ab6VL-(G4S)3-ab6VH-(G4S)3-PemVH-hIgG4 with PemVL-κ
Regarding B1, the “Fold change of EC50” value in assay [1] was 1.19 ratio; in [2], 1.04 ratio; in assay [5], 1 ratio; in assay [6], 1 ratio; in [7] it was 1 ratio; in [8], 1 ratio. Moreover, the “Fold change of EC50” value in assay [9] stood at 0.86 ratio; in assay [10], 1.07 ratio; in assay [12] it was 1 ratio; in [13] it was 1 ratio. The EC50 in assay [3] came to 0.2 nM; in [4] it was 0.341 nM; in [11], 0.127 nM; in [14], 0.081 nM; in [15], 0.181 nM; in assay [16], 0.36 nM.

For the origin of these results see patent publication US20210269521A1 (L AND L BIOPHARMA, published 2021).
